Measured values as given in patent publication US7122636.
Like-named read-outs stand apart in the source and are kept apart here.

T1: recombinant human IL-8, (ser-IL-8)72 (human, UniProt P10145 28-99)
T1 sequence (looked up): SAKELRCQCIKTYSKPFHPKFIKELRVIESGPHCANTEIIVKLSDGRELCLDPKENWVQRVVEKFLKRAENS

T2: β-TG (UniProt P02775 48-128)
T2 construct: also called b-TG
T2 sequence (looked up): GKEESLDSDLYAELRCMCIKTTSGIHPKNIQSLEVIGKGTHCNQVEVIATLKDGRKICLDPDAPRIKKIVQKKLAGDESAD

T3: PF4 (UniProt P02776 32-101)
T3 construct: also called platelet factor 4
T3 sequence (looked up): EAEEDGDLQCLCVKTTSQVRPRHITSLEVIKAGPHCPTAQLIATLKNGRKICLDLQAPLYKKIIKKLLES


Columns and labels:
[1] = biological target: T1, recombinant human IL-8, (ser-IL-8)72; test: cell-based or functional assay
[2] = biological target: T1, recombinant human IL-8, (ser-IL-8)72; test: 125I-IL-8 binding to human neutrophils, competition
[3] = biological target: T1, recombinant human IL-8, (ser-IL-8)72; test: as above; remark: listed apart in the source
[4] = biological target: T1, recombinant human IL-8, (ser-IL-8)72; test: 125I-IL-8 binding to human neutrophils, competition; against the chimeric F(ab)
[5] = biological target: T1, recombinant human IL-8, (ser-IL-8)72; test: 125I-IL-8 binding to human neutrophils, competition; against F(ab)-1
β-TG = biological target: T2, β-TG; test: cross reactivity test
PF4 = biological target: T3, PF4; test: cross reactivity test

IC50 [3] [nM] | fold decrease in IL-8 binding [5] [fold] | Binder | other results
 |  | 6G4V11N35A Fab (Fab, V domains shown) VH: EVQLVQSGGGLVQPGGSLRLSCAASGYSFSSHYMHWVRQAPGKGLEWVGYIDPSNGETTYNQKFKGRFTLSRDNSKNTAYLQMNSLRAEDTAVYYCARGDYRYNGDWFFDVWGQGTLVTVSS VL: DIQMTQSPSSLSASVGDRVTITCRSSQSLVHGIGATYLHWYQQKPGKAPKLLIYKVSNRFSGVPSRFSGSGSGTDFTLTISSLQPEDFATYYCSQSTHVPLTFGQGTKVEIKR | IC50, neutrophil chemotaxis [1]: 2.7 nM
63 |  | humanized 6G425 F(ab)-1 (Fab, V domains shown, Fab with human kappa I and human IgG1 CH1 constant domains; also called version 1; V1) VH: EVQLVESGGGLVQPGGSLRLSCAASGYSFSSHYMHWVRQAPGKGLEWVGYIDPSNGETTYNQKFKGRFTISRDNSKNTLYLQMNSLRAEDTAVYYCAARGDYRYNGDWFFDVWGQGT VL: DIQMTQSPSSLSASVGDRVTITCRSSQSLVHGIGNTYLHWYQQKPGKAPKLLIYYKVSNRFSGVPSRFSGSGSGTDFTLTISSLQPEDFATYYCSQSTHVPLTFGQGTKVEIKR | IC50 [2]: 40 nM; fold reduction in binding affinity [4]: 5.5 fold
106 | < 2 | humanized 6G425 F(ab)-2 (Fab, V domains shown, template F(ab)-1; also called version 2) VH: EVQLVESGGGLVQPGGSLRLSCAASGYSFSSHYMHWVRQAPGKGLEWVGYIDPSNGETTYNQKFKGRATISRDNSKNTLYLQMNSLRAEDTAVYYCAARGDYRYNGDWFFDVWGQGT VL: DIQMTQSPSSLSASVGDRVTITCRSSQSLVHGIGNTYLHWYQQKPGKAPKLLIYYKVSNRFSGVPSRFSGSGSGTDFTLTISSLQPEDFATYYCSQSTHVPLTFGQGTKVEIKR | 
79.8 | < 2 | humanized 6G425 F(ab)-3 (Fab, V domains shown, template F(ab)-1; also called version 3) VH: EVQLVESGGGLVQPGGSLRLSCAASGYSFSSHYMHWVRQAPGKGLEWVGYIDPSNGETTYNQKFKGRFTISVDNSKNTLYLQMNSLRAEDTAVYYCAARGDYRYNGDWFFDVWGQGT VL: DIQMTQSPSSLSASVGDRVTITCRSSQSLVHGIGNTYLHWYQQKPGKAPKLLIYYKVSNRFSGVPSRFSGSGSGTDFTLTISSLQPEDFATYYCSQSTHVPLTFGQGTKVEIKR | 
 |  | anti-IL-8 monoclonal antibody 5.12.14 (antibody, mouse IgG2a, V domains shown, mouse IgG2a from hybridoma ATCC HB 11553) VH: EVQLVESGGGLVPPGGSLKLSCAASGFIFSSYGMSWVRQTPGKSLELVATINNNGDSTYYPDSVKGRFTISRDNAKNTLYLQMSSLKSEDTAMFYCARALISSATWFGYWGQGTLVTVSA VL: DIVMTQSQKFMSTSVGDRVSVTCKASQNVGTNVAWYQQKPGQSPKALIYSSSYRYSGVPDRFTGSGSGTDFTLTISHVQSEDLADYFCQQYNIYPLTFGPGTKLELKR | binding result (β-TG): no binding; binding result (PF4): no binding
